Laboratory results: patent US20100150950A1, “HUMAN ANTIBODIES THAT BIND CD70 AND USES THEREOF” (Medarex, Inc., priority 2006, published 2010)

Key:
[1] = target: T1, recombinant human CD70 fused with a dual myc-His tag (human, UniProt P32970 39-193); test: ELISA on plate-coated recombinant myc-tagged CD70, anti-human IgG-HRP detection
T1 construct: also called recombinant myc-tagged CD70; CD70-myc-his; not shown: dual myc-His tag
T1 sequence: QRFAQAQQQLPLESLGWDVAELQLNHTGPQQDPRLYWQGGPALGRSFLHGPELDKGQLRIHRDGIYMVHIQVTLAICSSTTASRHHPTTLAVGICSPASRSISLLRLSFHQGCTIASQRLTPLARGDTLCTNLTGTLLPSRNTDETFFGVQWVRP
Protocol: Standard ELISA procedures were performed. The anti-CD70 human monoclonal antibodies were added at a concentration of 1 μg/ml and titrated down at 1:2 serial dilutions. Goat-anti-human IgG (Fc or kappa chain-specific) polyclonal antibody conjugated with horseradish peroxidase (HRP) was used as secondary antibody.

[2] = target: T2, human CD70 expressed on the cell surface (human, UniProt P32970 1-193); test: flow cytometry titration on 786-O cells, PE anti-human IgG
T2 construct: also called full length CD70 on transfected CHO cells
T2 sequence: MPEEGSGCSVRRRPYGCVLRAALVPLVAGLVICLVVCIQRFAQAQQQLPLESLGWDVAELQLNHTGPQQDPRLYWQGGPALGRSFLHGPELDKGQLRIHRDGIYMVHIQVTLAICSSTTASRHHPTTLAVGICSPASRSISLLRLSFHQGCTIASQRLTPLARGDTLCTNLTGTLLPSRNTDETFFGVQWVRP
Protocol: (§1) Binding of the anti-CD70 human monoclonal antibodies was assessed by incubating 5×10⁵ cells with antibody at a starting concentration of 50 μg/ml and serially diluting the antibody at a 1:3 dilution. The cells were washed and binding was detected with a PE-labeled anti-human IgG Ab. Flow cytometric analyses were performed using a FACSCalibur flow cytometry (Becton Dickinson, San Jose, Calif.).

[3] = target: T2, human CD70 expressed on the cell surface; test: Scatchard analysis, 125I-labelled antibody on CHO cells transfected with full length CD70
Protocol: CHO cells were transfected with full length CD70 using standard techniques and grown in RPMI media containing 10% fetal bovine serum (FBS). The cells were trypsinized and washed once in Tris based binding buffer (24 mM Tris pH 7.2, 137 mM NaCl, 2.7 mM KCl, 2 mM Glucose, 1 mM CaCl₂, 1 mM MgCl₂, 0.1% BSA) and the cells were adjusted to 2×10⁶ cells/ml in binding buffer. Millipore plates (MAFB NOB) were coated with 1% nonfat dry milk in water and stored a 4° C. overnight. The plates were washed three times with 0.2 ml of binding buffer. Fifty microliters of buffer alone was added to the maximum binding wells (total binding). Twenty-five microliters of buffer alone was added to the control wells (non-specific binding). […] Varying concentrations of unlabeled antibody at 100 fold excess was added in a volume of 25 μl to control wells and 25 μl of CD70 transfected CHO cells (2×10⁶ cells/ml) in binding buffer were added to all wells. The plates were incubated for 2 hours at 200 RPM on a shaker at 4° C. At the completion of the incubation the Millipore plates were washed three times with 0.2 ml of cold wash buffer (24 mM Tris pH 7.2, 500 mM NaCl, 2.7 mM KCl, 2 mM Glucose, 1 mM CaCl₂, 1 mM MgCl₂, 0.1% BSA.). The filters were removed and counted in a gamma counter. Evaluation of equilibrium binding was performed using single site binding parameters with the Prism software (San Diego, Calif.).

[4] = target: T2, human CD70 expressed on the cell surface; test: flow cytometry titration on A498 cells, PE anti-human IgG
Protocol: as §1

[5] = target: T2, human CD70 expressed on the cell surface; test: flow cytometry on Raji cells, MFI
Protocol: (§2) Binding of the anti-CD70 human monoclonal antibodies was assessed by incubating 5×10⁵ cells with antibody at a starting concentration of 50 μg/ml and serially diluting the antibody at a 1:3 dilution. An isotype control antibody was used as a negative control. The cells were washed and binding was detected with a PE-labeled anti-human IgG Ab. Flow cytometric analyses were performed using a FACSCalibur flow cytometry (Becton Dickinson, San Jose, Calif.).

[6] = target: T2, human CD70 expressed on the cell surface; test: cell-based or functional assay
[7] = target: T2, human CD70 expressed on the cell surface; test: flow cytometry on Granta 519 cells, MFI
Protocol: as §2

[8] = target: human CD16 (FcRγIII) on effector cells (human, UniProt P08637 17-254); test: cell-based or functional assay
[9] = target: T2, human CD70 expressed on the cell surface; test: flow cytometry on 786-0 cells, goat F(ab')2 anti-human IgG(Fc)-PE
Protocol: The cells were incubated for 30 minutes on ice, washed twice in staining buffer and stained with Goat F(ab)′2-anti-human-IgG(Fc)-PE conjugate for 30 minutes. The cells were washed and resuspended in staining buffer for analysis by flow cytometry.

[10] = tested on: CD70-mediated CD27 signaling induced proliferation of human CD3+ T cells; test: Functional blocking of CD70 costimulated T cell proliferation; format: cell-based; conditions: anti-CD3 (OKT3), CHO cells with mouse CD32 and human CD70, 3 days
Description: This example describes the analysis and characterization of the functional blocking of CD70 costimulated T cell proliferation by anti-CD70 antibodies 1F4 IgG1, 1F4 IgG4, 2H5, 2H5 F(ab′)2 and 2H5 Fab.
Human CD3^+ T cells were isolated from cryopreserved PBMC using MACS CD3 Microbeads and then cultured at 2×10^6 cells/ml in RPMI-1640 complete media+10% heat inactivated FCS in the presence of Mitomycin C treated CHO cells stably transfected with both mouse CD32 and human CD70. Cells were stimulated with […] anti-CD3 (clone OKT3) for 3 days, 1 μCi/well of ^3H-Thymidine was added for 6 hours and the cells were harvested. Proliferation was measured as CPM incorporated by scintillation counting.

CD70 = target: T3, CD70 (Homo sapiens, UniProt P32970); test: Epitope binding experiments using BIAcore
T3 sequence (P32970 1-193): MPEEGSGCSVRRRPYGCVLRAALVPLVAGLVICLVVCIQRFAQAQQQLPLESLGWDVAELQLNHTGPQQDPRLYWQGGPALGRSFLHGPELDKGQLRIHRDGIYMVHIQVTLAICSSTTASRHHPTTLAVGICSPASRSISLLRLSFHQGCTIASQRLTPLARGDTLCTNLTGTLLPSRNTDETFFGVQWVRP
Protocol: Such cross-competing antibodies can be identified based on their ability to cross-compete with 2H5, 10B4, 8B5, 18E7, 69A7, 69A7Y or 1F4 in standard CD70 binding assays. For example, standard ELISA assays can be used in which a recombinant human CD70 protein is immobilized on the plate, one of the antibodies is fluorescently labeled and the ability of non-labeled antibodies to compete off the binding of the labeled antibody is evaluated. Additionally or alternatively, BIAcore analysis can be used to assess the ability of the antibodies to cross-compete.

human CD16 (FcRγIII) on effector cells, sequence (P08637 17-254): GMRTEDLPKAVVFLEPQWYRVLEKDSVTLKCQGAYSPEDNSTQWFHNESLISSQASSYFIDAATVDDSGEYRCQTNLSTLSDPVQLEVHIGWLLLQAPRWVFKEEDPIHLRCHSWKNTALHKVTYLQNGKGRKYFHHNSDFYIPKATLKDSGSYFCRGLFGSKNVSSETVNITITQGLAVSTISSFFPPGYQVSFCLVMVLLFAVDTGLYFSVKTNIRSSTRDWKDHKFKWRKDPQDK

B1: anti-CD70 human monoclonal antibody 10B4 (antibody, V domains shown)
VH: QIQLVESGGGVVQPGRSLRLSCAASGFTFGYYAMHWVRQAPGKGLEWVAVISYDGSIKYYADSVKGRFTISRDNSKNTLYLQMNSLRAEDTAVYYCAREGPYSNYLDYWGQGTLVTVSS
VL: AIQLTQSPSSLSASVGDRVTITCRASQGISSALAWYQQKPGKAPKFLIYDASSLESGVPSRFSGSGSGTDFTLTISSLQPEDFATYYCQQFNSYPFTFGPGTKVDIK
notes: Human IgG from hybridoma
[1]
  EC50 (read off the curve): ~0.05 µg/mL
[2]
  EC50 (read off the curve): ~2 nM
[3]
  Kd: ~1.6 nM
[4]
  EC50 (read off the curve): ~4 nM

B2: anti-CD70 human monoclonal antibody 2H5 (antibody, IgG1, V domains shown)
VH: QVQLVESGGGVVQPGRSLRLSCAASGFTFSSYIMHWVRQAPGKGLEWVAVISYDGRNKYYADSVKGRFTISRDNSKNTLYLQMNSLRAEDTAVYYCARDTDGYDFDYWGQGTLVTVSS
VL: EIVLTQSPATLSLSPGERATLSCRASQSVSSYLAWYQQKPGQAPRLLIYDASNRATGIPARFSGSGSGTDFTLTISSLEPEDFAVYYCQQRTNWPLTFGGGTKVEIK
notes: Human IgG with kappa light chain; also called HuMAb 2H5; 2H5 IgG1
[1]
  EC50 (read off the curve): ~0.06 µg/mL
[5]
  EC50: 1.33 nM
[6]
  EC50 of decrease in ^3H-thymidine incorporation, Hum-Zap internalization assay on 786-O cells: 0.9 nM
[2]
  EC50 (read off the curve): ~5 nM
[3]
  Kd: ~2.1 nM
[4]
  EC50 (read off the curve): ~8 nM
[7]
  EC50: 1.33 nM

B3: nonfucosylated anti-CD70 human monoclonal antibody 2H5 (antibody, V domains shown)
VH: QVQLVESGGGVVQPGRSLRLSCAASGFTFSSYIMHWVRQAPGKGLEWVAVISYDGRNKYYADSVKGRFTISRDNSKNTLYLQMNSLRAEDTAVYYCARDTDGYDFDYWGQGTLVTVSS
VL: EIVLTQSPATLSLSPGERATLSCRASQSVSSYLAWYQQKPGQAPRLLIYDASNRATGIPARFSGSGSGTDFTLTISSLEPEDFAVYYCQQRTNWPLTFGGGTKVEIK
notes: also called 2H5 NF; 2H5nf
[8]
  amount of anti-CD16 antibody 3G8 needed to reverse the inhibition of peptide specific CD8+ T cell expansion, against 2H5: ~1000 fold
  potency in lysis of activated human B cells against 2H5, ^51Cr-release ADCC assay with anti-CD16 antibody 3G8: ~10 fold
[9]
  EC50 (read off the curve): ~0.2 µg/mL

B4: 2H5 Fab: Fab fragment of anti-CD70 antibody 2H5 (antibody, V domains shown)
VH: QVQLVESGGGVVQPGRSLRLSCAASGFTFSSYIMHWVRQAPGKGLEWVAVISYDGRNKYYADSVKGRFTISRDNSKNTLYLQMNSLRAEDTAVYYCARDTDGYDFDYWGQGTLVTVSS
VL: EIVLTQSPATLSLSPGERATLSCRASQSVSSYLAWYQQKPGQAPRLLIYDASNRATGIPARFSGSGSGTDFTLTISSLEPEDFAVYYCQQRTNWPLTFGGGTKVEIK
[10]
  functional blocking of CD70 costimulated T cell proliferation: complete lack of functional blocking activity

B5: 2H5 F(ab′)2: F(ab′)2 fragment of anti-CD70 antibody 2H5 (antibody, V domains shown)
VH: QVQLVESGGGVVQPGRSLRLSCAASGFTFSSYIMHWVRQAPGKGLEWVAVISYDGRNKYYADSVKGRFTISRDNSKNTLYLQMNSLRAEDTAVYYCARDTDGYDFDYWGQGTLVTVSS
VL: EIVLTQSPATLSLSPGERATLSCRASQSVSSYLAWYQQKPGQAPRLLIYDASNRATGIPARFSGSGSGTDFTLTISSLEPEDFAVYYCQQRTNWPLTFGGGTKVEIK
[10]
  functional blocking of CD70 costimulated T cell proliferation: reduced functional blocking efficacy

B6: 69A7Y: same as 69A7 with C to Y mutation at VH position 100; VH SEQ ID NO:73, VL SEQ ID NO:11 (antibody, listed as Homo sapiens, V domains shown)
VH: QVQLQESGPGLVKPSETLSLTCTVSGGSVSSDYYYWSWIRQPPGKGLEWLGYIYYSGSTNYNPSLKSRVTISVDTSKNQFSLKLRSVTTADTAVYYCARGDGDYGGNYFDYWGQGTLVTVSS
VL: EIVLTQSPATLSLSPGERATLSCRASQSVSSYLAWYQQKPGQAPRLLIFDASNRATGIPARFSGSGSGTDFTLTISSLEPEDFAVYYCQQRSNWPLTFGGGTKVEIK
CD70
  epitope on CD70: distinct epitopes

B7: anti-CD70 human monoclonal antibody 8B5 (antibody, V domains shown)
VH: QVQLVESGGGVVQPGRSLRLSCATSGFTFSDYGMHWVRQAPGKGLEWVAVIWYDGSNKYYADSVKGRFTISRDNSKKTLSLQMNSLRAEDTAVYYCARDSIMVRGDYWGQGTLVTVSS
VL: DIQMTQSPSSLSASVGDRVTITCRASQGISSWLAWYQQKPEKAPKSLIYAASSLQSGVPSRFSGSGSGTDFTLTISSLQPEDFATYYCQQYNSYPLTFGGGTKVEIK
notes: Human IgG from hybridoma
[3]
  Kd: ~5.1 nM

B8: anti-CD70 human monoclonal antibody 18E7 (antibody, V domains shown)
VH: QVQLVESGGGVVQPGRSLRLSCAASGFTFSDHGMHWVRQAPGKGLEWVAVIWYDGSNKYYADSVKGRFTISRDNSKNTLYLQMNSLRAEDTAVYYCARDSIMVRGDYWGQGTLVTVSS
VL: DIQMTQSPSSLSASVGDRVTITCRASQGISSWLAWYQQKPEKAPKSLIYAASSLQSGVPSRFSGSGSGTDFTLTISSLQPEDFATYYCQQYNSYPLTFGGGTKVEIK
notes: Human IgG from hybridoma
[2]
  EC50 (read off the curve): ~7 nM
[3]
  Kd: ~1.5 nM
